Results taken from the supplement of paper PMC10219994.
± gives the standard deviation of the averaged measurements.

B1: library; a variant is named by its letters at N, in order (parent)
chain: GAGACCGCAACTGAAAAGTTGTGGNNNNNATAGTGAGTCGCTGCCTGCAAAGACACAACT

Variants of: B1
Test: ligation selection enrichment (abundance after / before one-round selection) (fold); higher = more template-directed ligation activity
Conditions: with T7Psub CACGGAUGCUAAUACGACUCACUAUA; MgCl2 25 mM; 42 °C; 4 h; pH 8.5
Outline: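 In each of two independent experiments, 6 μM RNA substrate was reacted for 4 h at 42 °C with 0.75 μM of a T7-transcribed RNA ligase library randomized at five core positions, in buffer containing 50 mM EPPS pH 8.5 and 25 mM MgCl2. Only reads scoring ≥30 in quality at all randomized positions were counted after MiSeq sequencing. Each enrichment value is the ratio of abundance after ligation to abundance before ligation.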
With GAGACCGCAACTGAAAAGTTGTGGACAGCATAGTGAGTCGCTGCCTGCAAAGACACAACT [ACAGC] the ligation selection enrichment was 0.135 ± 0.011. For GAGACCGCAACTGAAAAGTTGTGGACAGTATAGTGAGTCGCTGCCTGCAAAGACACAACT [ACAGT], the ligation selection enrichment was 0.175 ± 0.012. In the case of GAGACCGCAACTGAAAAGTTGTGGACAGAATAGTGAGTCGCTGCCTGCAAAGACACAACT [ACAGA], the ligation selection enrichment is reported as 0.307 ± 0.022. Work on GAGACCGCAACTGAAAAGTTGTGGACAGGATAGTGAGTCGCTGCCTGCAAAGACACAACT [ACAGG] yielded a ligation selection enrichment of 0.217 ± 0.025. GAGACCGCAACTGAAAAGTTGTGGCCACCATAGTGAGTCGCTGCCTGCAAAGACACAACT [CCACC] showed a ligation selection enrichment of 0.0951 ± 0.0078. For GAGACCGCAACTGAAAAGTTGTGGCCACGATAGTGAGTCGCTGCCTGCAAAGACACAACT [CCACG], the ligation selection enrichment was 0.415 ± 0.075. GAGACCGCAACTGAAAAGTTGTGGCCACTATAGTGAGTCGCTGCCTGCAAAGACACAACT [CCACT] gave a ligation selection enrichment of 0.416 ± 0.15. GAGACCGCAACTGAAAAGTTGTGGCCACAATAGTGAGTCGCTGCCTGCAAAGACACAACT [CCACA] gave a ligation selection enrichment of 0.0899 ± 0.017. GAGACCGCAACTGAAAAGTTGTGGGATGGATAGTGAGTCGCTGCCTGCAAAGACACAACT [GATGG] gave a ligation selection enrichment of 0.46 ± 0.1. GAGACCGCAACTGAAAAGTTGTGGGATGCATAGTGAGTCGCTGCCTGCAAAGACACAACT [GATGC] was tested, and the ligation selection enrichment was 0.247 ± 0.024. In the case of GAGACCGCAACTGAAAAGTTGTGGGATGTATAGTGAGTCGCTGCCTGCAAAGACACAACT [GATGT], the ligation selection enrichment is reported as 0.126 ± 0.036. With GAGACCGCAACTGAAAAGTTGTGGGATGAATAGTGAGTCGCTGCCTGCAAAGACACAACT [GATGA] the ligation selection enrichment was 0.606 ± 0.077. With GAGACCGCAACTGAAAAGTTGTGGGCAGCATAGTGAGTCGCTGCCTGCAAAGACACAACT [GCAGC] the ligation selection enrichment was 0.14 ± 0.021. Work on GAGACCGCAACTGAAAAGTTGTGGGCAGAATAGTGAGTCGCTGCCTGCAAAGACACAACT [GCAGA] yielded a ligation selection enrichment of 0.363 ± 0.026. In the case of GAGACCGCAACTGAAAAGTTGTGGGCAGTATAGTGAGTCGCTGCCTGCAAAGACACAACT [GCAGT], the ligation selection enrichment is reported as 0.0918 ± 0.00069. Work on GAGACCGCAACTGAAAAGTTGTGGGCAGGATAGTGAGTCGCTGCCTGCAAAGACACAACT [GCAGG] yielded a ligation selection enrichment of 0.189 ± 0.024. With GAGACCGCAACTGAAAAGTTGTGGGCAACATAGTGAGTCGCTGCCTGCAAAGACACAACT [GCAAC] the ligation selection enrichment was 0.281 ± 0.015. With GAGACCGCAACTGAAAAGTTGTGGGCAATATAGTGAGTCGCTGCCTGCAAAGACACAACT [GCAAT] the ligation selection enrichment was 4.77 ± 1.7. With GAGACCGCAACTGAAAAGTTGTGGGCAAGATAGTGAGTCGCTGCCTGCAAAGACACAACT [GCAAG] the ligation selection enrichment was 0.562 ± 0.043. With GAGACCGCAACTGAAAAGTTGTGGGCAAAATAGTGAGTCGCTGCCTGCAAAGACACAACT [GCAAA] the ligation selection enrichment was 0.304 ± 0.025. GAGACCGCAACTGAAAAGTTGTGGACAAAATAGTGAGTCGCTGCCTGCAAAGACACAACT [ACAAA] showed a ligation selection enrichment of 0.227 ± 0.0041. GAGACCGCAACTGAAAAGTTGTGGACAATATAGTGAGTCGCTGCCTGCAAAGACACAACT [ACAAT] was tested, and the ligation selection enrichment was 3.6 ± 0.37. GAGACCGCAACTGAAAAGTTGTGGACAACATAGTGAGTCGCTGCCTGCAAAGACACAACT [ACAAC] was tested, and the ligation selection enrichment was 0.224 ± 0.024. Work on GAGACCGCAACTGAAAAGTTGTGGACAAGATAGTGAGTCGCTGCCTGCAAAGACACAACT [ACAAG] yielded a ligation selection enrichment of 0.442 ± 0.0085. GAGACCGCAACTGAAAAGTTGTGGAATGTATAGTGAGTCGCTGCCTGCAAAGACACAACT [AATGT] showed a ligation selection enrichment of 0.153 ± 0.076. GAGACCGCAACTGAAAAGTTGTGGAATGAATAGTGAGTCGCTGCCTGCAAAGACACAACT [AATGA] gave a ligation selection enrichment of 0.528 ± 0.046. Work on GAGACCGCAACTGAAAAGTTGTGGAATGGATAGTGAGTCGCTGCCTGCAAAGACACAACT [AATGG] yielded a ligation selection enrichment of 0.467 ± 0.097. GAGACCGCAACTGAAAAGTTGTGGAATGCATAGTGAGTCGCTGCCTGCAAAGACACAACT [AATGC] showed a ligation selection enrichment of 0.198 ± 0.015. In the case of GAGACCGCAACTGAAAAGTTGTGGGCATCATAGTGAGTCGCTGCCTGCAAAGACACAACT [GCATC], the ligation selection enrichment is reported as 0.168 ± 0.016. In the case of GAGACCGCAACTGAAAAGTTGTGGGCATAATAGTGAGTCGCTGCCTGCAAAGACACAACT [GCATA], the ligation selection enrichment is reported as 0.204 ± 0.0065. With GAGACCGCAACTGAAAAGTTGTGGAATTAATAGTGAGTCGCTGCCTGCAAAGACACAACT [AATTA] the ligation selection enrichment was 0.421 ± 0.03. GAGACCGCAACTGAAAAGTTGTGGAATTGATAGTGAGTCGCTGCCTGCAAAGACACAACT [AATTG] gave a ligation selection enrichment of 1.46 ± 0.055. GAGACCGCAACTGAAAAGTTGTGGAATTCATAGTGAGTCGCTGCCTGCAAAGACACAACT [AATTC] gave a ligation selection enrichment of 0.201 ± 0.075. Variant GAGACCGCAACTGAAAAGTTGTGGAATTTATAGTGAGTCGCTGCCTGCAAAGACACAACT [AATTT] has a ligation selection enrichment of 0.624 ± 0.11. GAGACCGCAACTGAAAAGTTGTGGTCAGTATAGTGAGTCGCTGCCTGCAAAGACACAACT [TCAGT] was tested, and the ligation selection enrichment was 0.161 ± 0.087. Work on GAGACCGCAACTGAAAAGTTGTGGTCAGGATAGTGAGTCGCTGCCTGCAAAGACACAACT [TCAGG] yielded a ligation selection enrichment of 0.337 ± 0.062. For GAGACCGCAACTGAAAAGTTGTGGTCAGCATAGTGAGTCGCTGCCTGCAAAGACACAACT [TCAGC], the ligation selection enrichment was 0.153 ± 0.017. GAGACCGCAACTGAAAAGTTGTGGTCAGAATAGTGAGTCGCTGCCTGCAAAGACACAACT [TCAGA] showed a ligation selection enrichment of 0.474 ± 0.043. In the case of GAGACCGCAACTGAAAAGTTGTGGTCACTATAGTGAGTCGCTGCCTGCAAAGACACAACT [TCACT], the ligation selection enrichment is reported as 0.427 ± 0.28. GAGACCGCAACTGAAAAGTTGTGGTCACAATAGTGAGTCGCTGCCTGCAAAGACACAACT [TCACA] showed a ligation selection enrichment of 0.115 ± 0.057. In the case of GAGACCGCAACTGAAAAGTTGTGGTCACCATAGTGAGTCGCTGCCTGCAAAGACACAACT [TCACC], the ligation selection enrichment is reported as 0.159 ± 0.0071. For GAGACCGCAACTGAAAAGTTGTGGTCACGATAGTGAGTCGCTGCCTGCAAAGACACAACT [TCACG], the ligation selection enrichment was 0.341 ± 0.018. Variant GAGACCGCAACTGAAAAGTTGTGGACATAATAGTGAGTCGCTGCCTGCAAAGACACAACT [ACATA] has a ligation selection enrichment of 0.136 ± 0.019. With GAGACCGCAACTGAAAAGTTGTGGACATCATAGTGAGTCGCTGCCTGCAAAGACACAACT [ACATC] the ligation selection enrichment was 0.138 ± 0.056.
